Assay results published in the DeepSol protein solubility set.

Assay: soluble on expression in E. coli; label from the status in PepcDB or PDB records

Sequence | soluble on expression in E. coli
MIRIELPTLIAKLNAQSKLALEQAASLCIERQHPEVTLEYYLDVLLDNPLSDVRLVLKQAGLEVDQVKQAIASTYSREQVLDTYPAFSPLLVELLQEAWLLSSTELEQAELRSGAIFLAALTRADRYLSFKLISLFEGINRENLKKHFAMILSDSAETAVAKTDKNAANPLQAAAETPLGRFCTNVTEQARNGELDPVLSRENELNLMVDILCRRRKNNPIVVGEAGVGKSAMIEGLALRVVAGKVPTQLQNVELYSLDLGRLQAGASVKGEFEKRLKGVIDAIKQSPKPIILFIDEAHTLIGSGNQEGGSDAANLLKPALARGELSTVAATTWKEYKKYFEKDPALTRRFQLVKLDEPTIDQAVDILRGLNSVYEKAHNVLITDDALKAAAELSARYISGRQLPDKAIDVLDTACARIAINMTTPPKRLALLETLCHQRQLEIDMLERAQFLGQEVDSERLDVLRNQELADEAEKAALTQSWQQQKSLVESIIALRAELMELSQAQEQDPDHLLVVRTALQEQYQALDAIDHAERLMHPQVDADQIAEVIADWTGVPVDQMNTDELHKITHLTSILGQAIKGQETAIERIHRHLLTARADLRRPGRPKGAFLLVGPSGVGKTETVVQLAEQLYGGKQFLTTINMSEYQEKHTVSRLIGSPPGYVGYGEGGVLTEAIRKMPYSVVLLDEVEKAHPEVLNIFYQGFDKGEIADGEGRVIDCQNIVFFLTSNLGYQTIVDYADEPAKLDEALYPELAAFFKPALLARMEVIPYLPLGKEVLAQIVRGKLARLEKLFKTRYNAEVVIEESLIDEILSRATRSENGARMLEAIIEGQLLPPVSLALLNKLAERAPVERIRLAAEAGEFIGEVA | not soluble
MSMPATLTKTTKLATSLIDEYALLGWRAMLTEVNLSPKPGLVDRINCGAHKDMALEDFHRSALAIQGWLPRFIEFGACSAEMAPEAVLHGLRPIGMACEGDMFRATAGVNTHKGSIFSLGLLCAAIGRLLQLNQLLTPTTVCSTAASFCRGLTDRELRTNNSQLTAGQRLYQQLGLTGARGEAEAGYPLVINHALPHYLTLLDQGLDPELALLDTLLLLMAINGDTNVASRGGEGGLRWLQREAQTLLQKGGIRTPADLDYLRQFDRECIERNLSPGGSADLLILTWFLAQI | soluble
MKATGFMGPCYAKAMATRYRFGLEEYERLFRGIRDVELLAGEVYRMSPIGPKHAWSVARLNRLFTEALGDRAVVWPQNPIRIPPHSEPQPDLALLRPKSYGEGLPTPEDVLLLVEVAETSLEHDQGLKLSLYAQAGIPEVWVLDLKENRLHVYRTPKAGVYTEHRILLPGEEAEPLAFPGVRIPWS | soluble
MLLKTIYCKVEEEKKKLFSNAQEKWSDIRHLDGFHGQFGGWYEDEACVFTLWEDRSTYQSFMNGAHDTIYLNSNQEDTFLSCEIELFQTLYDITDTHLKDVVTEGSFVRVAICDVKVEKEKYFLQKQETIWNKGMEKAKGMLGGVVGKSLKNENRYIVLTYWKDEQTHQHYVEEIFPDLYKLANIHEDIEEIKGKQAVCKEEWLVY | not soluble
MCMTNSMSDALKTLEVFRPEVEEIDEREVKLSVAPDRVIAVLETLKSLGYSHLSLMTCIDWIEDSQFELVYILFSWKDGGKFIVTTRIDRNNPQFVTVKEIWPVARFYEREIHEFFGVKFSGNEDMKPLFLELWDDKPPLRKDFDPLEYSRRKFPGREYQKDVIDEAKKIFRGEING | soluble
MSLVMGQEKLYIEKELSWLSFNERVLQEAADKSNPLIERMRFLGIYSNNLDEFYKVRFAELKRRIIISEEQGSNAHSRHLLGKIQSRVLKADQEFDGLYNELLLEMARNQIFLINERQLSVNQQNWLRHYFKQYLRQHITPILINPDTDLVQFLKDDYTYLAVEIIRSDSIRYALLEIPSDKVPRFVNLPPEAPRRRKPMILLDNILRYCLDDIFKGFFDYDALNAYSMKMTRDAEYDLVHEMEASLMELMSSSLKQRLTAEPVRFVYQRDMPNALVEVLREKLTISRYDSIVPGGRYHNFKDFINFPNVGKANLVNKPLPRLRHIWFDKAQFRNGFDAIRERDVLLYYPYHTFEHVLELLRQASFDPSVLAIKINIYRVAKDSRIIDSMIHAAHNGKKVTVVVELQARFDEEANIHWAKRLTEAGVHVIFSAPGLKIHAKLFLISRKENGEVVRYAHIGTGNFNEKTARLYTDYSLLTADARITNEVRRVFNFIENPYRPVTFDYLMVSPQNSRRLLYEMVDREIANAQQGLPSGITLKLNNLVDKGLVDRLYAASSSGVPVNLLVRGMCSLIPNLEGISDNIRAISIVDRYLEHDRVYIFENGGDKKVYLSSADWMTRNIDYRIEVATPLLDPRLKQRVLDIIDILFSDTVKARYIDKELSNRYVPRGNRRKVRAQLAIYDYIKSLEQPEEGHHHHHH | soluble
WRKKRKDAKNNEVSFSQIKPKKSKLIRVENFEAYFKKQQADSNCGFAEEYEDLKLIGISLPKYAAEIAENRGKNRYNNVLPYDISRVKLSVQTHSTDDYINANYMPGYHSKKDFIATQGPLPNTLKDFWRMVWEKNVYAIVMLTKCVEQGRTKCEEYWPSKQAQDYGDITVAMTSEVVLPEWTIRDFVVKNMQSSESHPLRQFHFTSWPDHGVPDTTDLLINFRYLVRDYMKQIPPESPILVHCSAGVGRTGTFIAIDRLIYQIENENTVDVYGIVYDLRMHRPLMVQTEDQYVFLNQCVLDIIRAQKDSKVDLIYQNTTAMTIYENLERVSMFGKANGYIA | soluble
MSVDEKPIKIKVEKVSKIFGKQTKKAVQMLANGKAKKEILKATGSTVGVNQADFEVYDGEIFVIMGLSGSGKSTLVRMLNRLIEPTAGNIYIDGDMITNMSKDQLREVRRKKISMVFQKFALFPHRTILENTEYGLELQGVDKQERQQKALESLKLVGLEGFEHQYPDQLSGGMQQRVGLARALTNDPDILLMDEAFSALDPLIRKDMQDELLDLHDNVGKTIIFITHDLDEALRIGDRIVLMKDGNIVQIGTPEEILMNPSNEYVEKFVEDVDLSKVLTAGHIMKRAETVRIDKGPRVALTLMKNLGISSIYAVDKQKKLLGVIYASDAKKAAESDLSLQDILNTEFTTVPENTYLTEIFDVVSDANIPIAVVDEKQRMKGIVVRGALIGALAGNNEYINAEGT | not soluble
MGSSHHHHHHSSGLVPRGSAVPLCKQALEDLEKTSGHDHPDVATMLNILALVYRDQNKYKEAAHLLNDALAIREKTLGKDHPAVAATLNNLAVLYGKRGKYKEAEPLCKRALEIREKVLGKFHPDVAKQLSNLALLCQNQGKAEEVEYYYRRALEIYATRLGPDDPNVAKTKNNLASCYLKQGKYQDAETLYKEILTRAHEKEFGSVNGDNKPIWMHAEEREESKDKRRDSAPYGEYGSWYKACKVDSPTVNTTLRSLGALYRRQGKLEAAHTLEDCASRNRK | soluble
MNLSTKQKQHLKGLAHPLKPVVLLGSNGLTEGVLAEIEQALEHHELIKVKIATEDRETKTLIVEAIVRETGACNVQVIGKTLVLYRPTKERKISLPR | not soluble
MVKSQPILRYILRGIPAIAVAVLLSACSTTTNTAKNMHSETHAVGNSDSSSLQASQDEFENMVRNLDVKSRIMDQYADWKGVRYRLGGSTKKGVDCSSFVQRTFREQFGLELPRSTYEQQEMGKAVSRNNLRTGDLVLFRAGSTGRHVGIYIGNNQFVHASTSSGVIISSMNEPYWKKRYNEARRVLSRS | not soluble
MGRKKRLKVERKAVAENQSQILTMVTISETEMEKEKTYTALQKLKSVSNDLFEECQRVFANTSFCTAELENIVGCFDRYEKEISTIPDEYRTHPCVIKFQNCIRALCNVVAKKLNNTTRDVETQTNFQSPRITWRQRYWMPYLNK | not soluble
MSLSVKIVIKPNTYFDSVSLMSISTRANKLDGVEQAFVAMATEMNKGVLKNLGLLTPELEQAKNGDLMIVINGKSGADNEQLLVEIEELFNTKAQSGSHEARYATIGSAKKHIPESNLAVISVNGLFAAREARQALQNDLNVMLFSDNVSVEDELALKQLAHEKGLLMMGPDCGTAIINGAALCFGNAVRRGNIGIVGASGTGSQELSVRIHEFGGGVSQLIGTGGRDLSEKIGGLMMLDAIGMLENDPQTEIIALISKPPAPAVARKVLERARACRKPVVVCFLDRGETPVDEQGLQFARGTKEAALKAVMLSGVKQENLDLHTLNQPLIADVRARLQPQQKYIRGLFCGGTLCDETMFAVMEKHGDVYSNIQPDPEFRLKDINRSIKHTFLDFGDDDFTNGKPHPMIDPTNRISRLIEEARDPEVAVIVMDFVLGFGSHEDPVGSTIETIKEAKAIAAAEGRELIILAYVLGTDLDTPSLEQQSQMLLDAGVILASSSTNTGLLAREFICKGEEGHHHHHH | soluble
SLVHKKIVVPSATDMATRFTQDSFVFDCLSMYYVIDDPWAENCLAAGVNATNVTFGTEQPWDIVLRDFDSGLEKIERSPYLALATNRQEIDAANKQGKLAVIIGTQGSAMVDLEFHRLRTMHRLGMRYFGLAYTGPTMFADGCGESRNAGLSFAGIELIDACNDLGLILDLSHVGHRSREEAVARSRFPVYTHSNSYALNPNDRNTTDETARAIRAKGGIMGICGLPKTVHPENATLNELLDHADHWVKTIDAAHVGFGLDFVEAYKSDRSTMPAASRLWRTRRPDIFGTVEEFHLQDYPLGIASIKQLPNLTQGLFDRGYAEKEVAGIIGGNWLRHFTEVYG | soluble
MSSQIRQNYSTEVEAAVNRLVNLYLRASYTYLSLGFYFDRDDVALEGVCHFFRELAEEKREGAERLLKMQNQRGGRALFQDLQKPSQDEWGTTPDAMKAAIVLEKSLNQALLDLHALGSAQADPHLCDFLESHFLDEEVKLIKKMGDHLTNIQRLVGSQAGLGEYLFERLTLKHD | soluble
MAHHHHHHMRSNCAPLGRVKIRILDLTVLSEDASDFVYDGLYVVSRLGPDAQRTNILCNGADSAGGRCWNEVFMFHFEGNPPEFRETAPTLSKSGLDVTVGQHISTYHDGPSLGNPSREYILPQQPHEVKRGLLAPPWMGGSCALPAITLELWRYSLSSDDCLARYQFCIPLEMSSGNIADRVVRLASASSYSVQFALRIRVALSGYDGGALGFENYMPAMSPANLPVLWRH | not soluble
MGSDKIHHHHHHMAVKRAYYGNDGDRDYFERVFQSANINFLIGSGASLPAINVLGTIENDLQQLINDEKEDEYFNMAAGFLSAVWLPHEYILDRGNDVAFPPPVISNVDYTRKNYDAFISSLEKILTRRRTGLLPRRINVFTTNYDLFIEEAATRNNNILFNDGFNKRMNVWGDEEFDAGSFNYSVSATGNLYNYKVELPTVNLIKLHGSFSWKHYKGRIIYNIGEKKPLNFATPAEMKKWVLAHALILPRKEKFKETLLQNVYYDLLRTYSNELDKEATLLVVFGFSFADEHLEMLTKKALRNATLKLLIFAFNEASVGGFMENFRDYSNVEIIYRPGGNVDFPVMNNIITCYLGGAR | not soluble
MGHHHHHHSHMPKVKRSRKAPPDGWELIEPTLDELDQKMREAETEPHEGKRKVESLWPIFRIHHQKTRYIFDLFYKRKAISRELYEYCIKEGYADKNLIAKWKKQGYENLCCLRCIQTRDTNFGTNCICRVPKSKLEVGRIIECTHCGCRGCSG | soluble
VSDVPRDIEVVAVTPTSALISWDAPAVTIRYIRLTYGETGGNSPVQEITLPGSKSTYTISGLKPGTDYTVTLYSVTGRGDSPASSKPASINFRTEI | soluble
